To fix the notation:
B1: human MICA (Acro, MIA-H5221) (ligand, UniProt Q29983 24-307, looked up)
chain: EPHSLRYNLTVLSWDGSVQSGFLTEVHLDGQPFLRCDRQKCRAKPQGQWAEDVLGNKTWDRETRDLTGNGKDLRMTLAHIKDQKEGLHSLQEIRVCEIHEDNSTRSSQHFYYDGELFLSQNLETKEWTMPQSSRAQTLAMNVRNFLKEDAMKTKTHYHAMHADCLQELRRYLKSGVVLRRTVPPMVNVTRSEASEGNITVTCRASGFYPWNITLSWRQDGVSLSHDTQQWGDVLPDGNGTYQTWVATRICQGEEQRFTCYMEHSGNHSTHPVPSGKVLVLQSHW
notes: Bought reagent used as analyte in solution; also called NKG2D ligand MICA
B2: SI-49R19 (bispecific antibody)
heavy: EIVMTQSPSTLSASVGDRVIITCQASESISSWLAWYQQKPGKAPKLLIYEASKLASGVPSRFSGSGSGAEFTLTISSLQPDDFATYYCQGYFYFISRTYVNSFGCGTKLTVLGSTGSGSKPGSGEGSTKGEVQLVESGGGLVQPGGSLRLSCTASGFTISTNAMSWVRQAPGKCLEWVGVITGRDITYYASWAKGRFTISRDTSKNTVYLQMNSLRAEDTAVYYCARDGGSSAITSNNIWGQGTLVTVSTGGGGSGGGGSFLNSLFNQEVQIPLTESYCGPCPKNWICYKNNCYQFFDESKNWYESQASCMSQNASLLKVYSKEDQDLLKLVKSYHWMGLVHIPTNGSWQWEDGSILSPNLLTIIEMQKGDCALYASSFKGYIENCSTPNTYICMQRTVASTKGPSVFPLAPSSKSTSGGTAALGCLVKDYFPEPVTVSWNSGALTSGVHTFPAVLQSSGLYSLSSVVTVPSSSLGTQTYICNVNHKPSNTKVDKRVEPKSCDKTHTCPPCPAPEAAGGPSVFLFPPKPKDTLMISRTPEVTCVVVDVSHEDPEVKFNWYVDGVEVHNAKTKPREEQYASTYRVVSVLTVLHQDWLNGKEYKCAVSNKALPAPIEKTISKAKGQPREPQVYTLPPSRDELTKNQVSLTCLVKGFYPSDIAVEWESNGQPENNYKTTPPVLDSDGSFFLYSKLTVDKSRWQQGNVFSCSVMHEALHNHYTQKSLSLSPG
light: FLNSLFNQEVQIPLTESYCGPCPKNWICYKNNCYQFFDESKNWYESQASCMSQNASLLKVYSKEDQDLLKLVKSYHWMGLVHIPTNGSWQWEDGSILSPNLLTIIEMQKGDCALYASSFKGYIENCSTPNTYICMQRTVRTVAAPSVFIFPPSDEQLKSGTASVVCLLNNFYPREAKVQWKVDNALQSGNSQESVTEQDSKDSTYSLSSTLTLSKADYEKHKVYACEVTHQGLSSPVTKSFNRGEC
notes: Bispecific GNC: anti-CD3 scFv (αCD3-alt) at D1 and NKG2D at D2
B3: SI-49R23 (Fc fusion)
chain: FLNSLFNQEVQIPLTESYCGPCPKNWICYKNNCYQFFDESKNWYESQASCMSQNASLLKVYSKEDQDLLKLVKSYHWMGLVHIPTNGSWQWEDGSILSPNLLTIIEMQKGDCALYASSFKGYIENCSTPNTYICMQRTVASEPKSSDKTHTCPPCPAPEAAGGPSVFLFPPKPKDTLMISRTPEVTCVVVDVSHEDPEVKFNWYVDGVEVHNAKTKPREEQYASTYRVVSVLTVLHQDWLNGKEYKCAVSNKALPAPIEKTISKAKGQPREPQVYTLPPSRDELTKNQVSLTCLVKGFYPSDIAVEWESNGQPENNYKTTPPVLDSDGSFFLYSKLTVDKSRWQQGNVFSCSVMHEALHNHYTQKSLSLSPGK
notes: Monospecific protein with NKG2D directly fused to the antibody Fc domain; Two copies are inferred from the Fc dimer

One test has as its target T1, SI-49P7.
T1 construct: Penta-specific GNC: same structure as SI-49P6, but with 4-1BB ligand trimer at D4 instead of the anti-4-1BB scFv
The test can be described thus: BLI (Octet); GNC protein loaded on AHC sensors at 5 ug/ml; human MICA as analyte, 1:2 serial dilutions from 100 nM; global fit, 1:1 model. How it is done:
(§1) To validate functionality of the NKG2D receptor in the D2 position, Octet binding was performed. GNC protein was loaded onto AHC sensors at 5 ug/ml, and subsequently bound to 1:2 serial dilutions (top concentration 100 nM) of human MICA (Acro, MIA-H5221).
(In general: Biolayer interferometry detects binding as a change in optical thickness at a sensor tip.)

The target in test [1] is B1. Described as above. On the procedure: as §1

T1 sequence (heavy, as listed by the source): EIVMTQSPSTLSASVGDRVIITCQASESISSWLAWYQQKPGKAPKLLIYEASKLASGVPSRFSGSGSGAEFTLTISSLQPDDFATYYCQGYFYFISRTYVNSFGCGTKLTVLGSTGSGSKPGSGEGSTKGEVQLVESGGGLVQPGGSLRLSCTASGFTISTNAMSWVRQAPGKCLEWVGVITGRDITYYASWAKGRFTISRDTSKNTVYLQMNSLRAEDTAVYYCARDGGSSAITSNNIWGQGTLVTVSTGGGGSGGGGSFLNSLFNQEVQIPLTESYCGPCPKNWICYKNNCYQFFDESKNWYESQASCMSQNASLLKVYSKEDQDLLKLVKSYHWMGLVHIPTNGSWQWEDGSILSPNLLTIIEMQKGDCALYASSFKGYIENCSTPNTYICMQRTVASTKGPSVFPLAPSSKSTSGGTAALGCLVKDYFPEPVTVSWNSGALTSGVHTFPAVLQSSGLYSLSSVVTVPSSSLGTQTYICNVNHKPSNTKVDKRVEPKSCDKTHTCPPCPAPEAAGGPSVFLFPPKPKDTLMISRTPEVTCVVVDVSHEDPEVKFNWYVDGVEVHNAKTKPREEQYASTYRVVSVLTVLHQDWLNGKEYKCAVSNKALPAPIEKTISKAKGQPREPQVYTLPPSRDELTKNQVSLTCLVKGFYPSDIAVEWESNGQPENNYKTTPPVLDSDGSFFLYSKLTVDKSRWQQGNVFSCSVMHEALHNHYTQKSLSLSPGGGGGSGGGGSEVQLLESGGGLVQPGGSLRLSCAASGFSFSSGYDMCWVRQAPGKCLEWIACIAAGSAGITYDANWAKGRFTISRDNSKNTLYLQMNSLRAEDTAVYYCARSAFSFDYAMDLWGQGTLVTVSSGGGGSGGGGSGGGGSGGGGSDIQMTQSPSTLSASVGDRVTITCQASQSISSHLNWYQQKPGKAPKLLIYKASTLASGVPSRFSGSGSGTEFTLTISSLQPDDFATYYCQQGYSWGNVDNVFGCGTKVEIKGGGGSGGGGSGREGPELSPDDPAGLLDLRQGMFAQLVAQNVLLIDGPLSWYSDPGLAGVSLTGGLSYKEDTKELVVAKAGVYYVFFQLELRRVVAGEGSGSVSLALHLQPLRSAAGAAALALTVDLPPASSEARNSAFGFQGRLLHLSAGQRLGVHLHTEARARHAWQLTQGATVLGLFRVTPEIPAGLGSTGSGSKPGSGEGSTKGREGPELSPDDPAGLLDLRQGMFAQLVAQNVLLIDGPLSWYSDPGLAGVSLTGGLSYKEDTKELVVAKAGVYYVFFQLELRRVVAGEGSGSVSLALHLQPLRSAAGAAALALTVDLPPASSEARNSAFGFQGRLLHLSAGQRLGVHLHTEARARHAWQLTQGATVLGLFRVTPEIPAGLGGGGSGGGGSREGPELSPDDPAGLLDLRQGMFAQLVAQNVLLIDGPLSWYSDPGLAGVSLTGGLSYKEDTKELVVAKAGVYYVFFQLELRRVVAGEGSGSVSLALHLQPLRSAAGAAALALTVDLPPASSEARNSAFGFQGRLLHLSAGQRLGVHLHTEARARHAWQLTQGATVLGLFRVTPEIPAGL

For orientation: Kd means the concentration at which binding is half-saturated. A high value points to weaker binding. B1: the Kd with SI-49P7 amounted to 11.2 nM.
B2 showed a Kd in test [1] of 3.93 nM.
Molecule B3 came in with an equilibrium dissociation constant (Kd) in test [1] of 14.9 nM.

(Values after patent US20230113563A1 (SYSTIMMUNE, published 2023).)
